Data from paper PMC8169757.

How the values were obtained:
[1] = biological target: mouse NPM1 reintroduced into NPM1-/- HUH7 cells (mouse) (UniProt Q61937); test: native gel or EMSA; native PAGE of lysates of NPM1-/- HUH7 cells with reintroduced human or mouse NPM1; control and LETN knockdown
[2] = biological target: purified mouse NPM1 mutant mNPM1-214S/217S (mouse) (UniProt Q61937); test: native gel or EMSA; in vitro NPM1 oligomerization assay: purified NPM1 sonicated in binding buffer (50 mM Tris pH 7.4, 150 mM NaCl, 0.5% NP-40), incubated at RT with the in vitro transcribed first ~2000 nt of LETN, 10% native PAGE, anti-NPM1 blot
[3] = biological target: purified mouse NPM1 protein (mouse) (UniProt Q61937); test: native gel or EMSA; in vitro NPM1 oligomerization assay as a5 but without functional LETN (no RNA, scrambled RNA of similar length, or LETN lacking the three NPM1-binding fragments)

mouse NPM1 reintroduced into NPM1-/- HUH7 cells (from UniProt Q61937 1-292) (natural protein)
stoichiometry N [1]: 5

purified mouse NPM1 mutant mNPM1-214S/217S (from UniProt Q61937 1-292) (natural protein)
stoichiometry N [2]: 5

purified mouse NPM1 protein (from UniProt Q61937 1-292) (natural protein)
stoichiometry N [3]: 5
